The record followed here is patent publication US20100285015A1 (University of Pennsylvania, published 2010).

For this test, the target named is T1, mouse HMGB1 (produced in E. coli (Sigma)) (mouse, UniProt P63158 1-215, limits assumed).
T1 construct: Bought reagent; also called late cytokine (HMGB1); recombinant HMGB1
T1 sequence (looked up): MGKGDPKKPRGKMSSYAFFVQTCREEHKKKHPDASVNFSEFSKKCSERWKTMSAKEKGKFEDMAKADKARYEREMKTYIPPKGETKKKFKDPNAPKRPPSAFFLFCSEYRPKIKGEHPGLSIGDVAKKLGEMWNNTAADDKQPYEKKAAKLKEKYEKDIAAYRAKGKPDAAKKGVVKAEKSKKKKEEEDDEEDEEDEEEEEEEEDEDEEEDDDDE
The experiment in a line: agglutination of Ter119-TM loaded mouse RBCs after HMGB1 and anti-HMGB1 antibody. On the procedure: Mouse and human RBCs were washed in PBS/3% BSA buffer, resuspended in the same buffer to 10% hematocrit and incubated with Ter119-TM (final concentration […]) for 1 h. […] Then cells were washed 3 times with PBS/BSA buffer and equimolar amount of mouse HMGB1 (produced in E. coli (Sigma)) was added to the assay for 30 min at room temperature. Then RBC were washed with PBS/BSA and brought to the final hematocrit of 1% and the monoclonal Ab to mouse HMGB1 (Sigma, dilution as per manufacturer) was added to the assay placed into a V-shaped plate (total volume-100 μl).

B1: Ter119scFv-TM (thrombomodulin) fusion protein (other)
chain: RSPWPGVPTSQVKLQESGGGLVQPGGSLKLSCVASGFTFRDHWMNWVRQAPGKTMEWIGDIRPDGSDTNYAPSVRNRFTISRDNARSILYLQMSNMRSDYTATYYCVRDSPTRAGLMDAWGQGASVTVLTGGGGSGGGGSGGGGSDIQMIQSPSVLSASVGDRVTLNCKASQNINKYLNWYQQKLGEAPKVLIYNTNNLQTGIPSRFSGSGSGTDFTLTISSLQPEDFATYFCFQHYTWPTFGGGTKLELKRASSSSGSSSSGAAALSALAKLQPTGSQCVEHECFALFQGPATFLDASQACQRLQGHLMTVRSSVAADVISLLLSQSSMDLGPWIGLQLPQGCDDPVHLGPLRGFQWVTGDNHTSYSRWARPNDQTAPLCGPLCVTVSTATEAAPGEPAWEEKPCETETQGFLCEFYFTASCRPLTVNTRDPEAAHISSTYNTPFGVSGADFQTLPVGSSAAVEPLGLELVCRAPPGTSEGHWAWEATGAWNCSVENGGCEYLCNRSTNEPRCLCPRDMDLQADGRSCARPVVQSCNELCEHFCVSNAEVPGSYSCMCETGYQLAADGHRCEDVDDCKQGPNPCPQLCVNTKGGFECFCYDGYELVDGECVELLDPCFGSNCEFQCQPVSPTDYRCICAPGFAPKPDEPHKCEMFCNETSCPADCDPNSPTVCECPEGFILDEGSVCTDIDECSQGECFTSECRNFPGSYECICGPDTALAGQISKDCDPIPVREDTKEEEGSGEPPVSPTPGSPTGPPSARPVHSDYKDHDGDYKDHDIDYKDDDDK
notes: Expressed in Drosophila S2 cells from a pMT/BiP/V5-HisA plasmid; Some assays used it directly from S2 cell medium; also called Ter119-TM
With B1, the binding result is on record as “binds”.
